{"source": "paper PMC11441081", "about": "(2024)", "binders": {"B1": {"name": "H81 recombinant antibody (equine Ig (Fab)2 recombined with homo Ig Fc) (antibody, V domains shown)", "VH": "QVQLKESGPGLVKPSQTLSLTCTVSGLSLSSDAVGWVRQAPGKGLEWVACIYGDESTYYNPALKSRAGITKDTSKSQVYLTLNSLTGEDTAVYYCAGLVYEYYAGTWTIVFELKYWGQGILVTVSS", "VL": "QSLTQPASVSGTLGQTVTISCSGSSSNIGHRYSTVGWYQQIPGTAPKTLIYGSDKRASGVPDRFSGSKSGNTATLTISGLQAEDEADYYCGSYYYASSDSSGGAFGGGTHLTIA"}}, "key": {"[1]": {"target": "T1, EIV-HA protein (hemagglutinin of equine influenza virus H3N8), wild type (equine influenza virus (H3N8))", "test": "SPR"}, "[2]": {"target": "T1, EIV-HA protein (hemagglutinin of equine …)", "test": "ELISA"}, "[3]": {"target": "T1, EIV-HA protein (hemagglutinin of equine …)", "test": "SPR", "remark": "listed apart in the source"}}, "data": [{"binder": "B1", "values": [{"measurement": "Kd", "setting": "[1]", "value": 10.1, "unit": "nM"}, {"measurement": "EC50", "setting": "[2]", "value": 4.2, "unit": "ng/mL"}, {"measurement": "koff", "setting": "[3]", "value": "8.52e-05", "unit": "s⁻¹"}]}]}
